Here are results for one substance from PMC13281839.

A word on the pKd: it is the Kd on a negative log10 scale, so that one unit is a factor of ten.

This assay deals with N‐terminal half of fibrillin‐1, fragment rF90 (S19‐V1527) (UniProt P35555). Description: SPR. (In general: SPR reads the build-up and loss of mass on a sensor chip optically.)

pKd: −log10 of the molar value.

UniProt P35555, sequence (P35555 45-1527): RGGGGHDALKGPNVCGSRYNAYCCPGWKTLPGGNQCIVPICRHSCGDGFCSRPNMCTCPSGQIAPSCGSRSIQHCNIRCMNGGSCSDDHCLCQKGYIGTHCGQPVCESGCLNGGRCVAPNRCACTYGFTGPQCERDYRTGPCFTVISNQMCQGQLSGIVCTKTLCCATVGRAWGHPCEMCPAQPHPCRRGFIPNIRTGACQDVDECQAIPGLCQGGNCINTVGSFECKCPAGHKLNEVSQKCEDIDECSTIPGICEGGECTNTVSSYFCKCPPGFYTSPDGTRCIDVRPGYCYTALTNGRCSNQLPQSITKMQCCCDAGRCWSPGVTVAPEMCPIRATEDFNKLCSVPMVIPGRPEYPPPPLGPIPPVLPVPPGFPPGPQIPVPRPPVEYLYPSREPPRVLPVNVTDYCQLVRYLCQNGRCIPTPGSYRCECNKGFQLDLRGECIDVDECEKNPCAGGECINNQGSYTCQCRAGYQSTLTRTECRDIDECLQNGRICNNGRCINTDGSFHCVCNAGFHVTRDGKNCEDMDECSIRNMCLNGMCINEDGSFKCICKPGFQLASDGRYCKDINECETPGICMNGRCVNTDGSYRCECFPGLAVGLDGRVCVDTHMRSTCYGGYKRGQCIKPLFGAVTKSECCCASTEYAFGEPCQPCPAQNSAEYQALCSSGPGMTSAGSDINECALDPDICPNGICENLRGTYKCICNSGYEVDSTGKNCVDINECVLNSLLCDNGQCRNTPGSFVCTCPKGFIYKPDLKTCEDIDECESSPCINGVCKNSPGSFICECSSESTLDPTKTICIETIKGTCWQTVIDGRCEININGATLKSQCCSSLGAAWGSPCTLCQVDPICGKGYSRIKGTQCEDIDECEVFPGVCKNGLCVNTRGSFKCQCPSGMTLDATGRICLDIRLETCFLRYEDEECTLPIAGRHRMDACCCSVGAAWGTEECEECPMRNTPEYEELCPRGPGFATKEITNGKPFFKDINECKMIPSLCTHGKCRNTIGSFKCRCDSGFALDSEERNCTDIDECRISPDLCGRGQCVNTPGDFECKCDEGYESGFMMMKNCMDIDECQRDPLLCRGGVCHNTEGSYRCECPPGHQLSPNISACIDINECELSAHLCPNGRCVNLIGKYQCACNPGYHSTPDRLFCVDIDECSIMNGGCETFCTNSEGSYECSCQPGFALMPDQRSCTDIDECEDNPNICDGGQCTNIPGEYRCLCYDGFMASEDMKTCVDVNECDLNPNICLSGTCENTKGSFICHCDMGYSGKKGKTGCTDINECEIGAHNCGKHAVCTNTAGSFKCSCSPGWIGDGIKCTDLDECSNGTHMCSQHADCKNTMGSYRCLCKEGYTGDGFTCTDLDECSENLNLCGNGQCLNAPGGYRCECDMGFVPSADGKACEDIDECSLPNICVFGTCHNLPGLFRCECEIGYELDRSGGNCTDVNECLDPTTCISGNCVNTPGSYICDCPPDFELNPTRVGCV

As for “BMP‐7 CPLX (BMP‐7 growth factor‐prodomain complex) (from UniProt P18075 293-431)”, the pKd was 8.15.
